The supplement of paper PMC9170038

Experiments:
MS2 coat protein [1] = assay: apparent KD of MS2 coat protein, switch OFF state (with FMN for OFF switches, without FMN for ON switches); designed switch direction (-1 OFF switch, 1 ON switch): 1; higher = weaker reporter binding; conditions: FMN input: 0 or 200 uM; Eterna round: R93 (includes R88 designs)
In short: (§1)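 Designed RNA switches, transcribed on-chip from Illumina sequencing clusters, were titrated with SNAP-549-labelled MS2 coat protein from 0.7 or 1.5 nM to 3 µM in twofold steps. The solution was 100 mM Tris-HCl pH 7.5, 80 mM KCl, 4 mM MgCl2, with constant ligand or without it. Apparent KD is the median over each design's normalised cluster binding-curve fits.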

MS2 coat protein [2] = assay: apparent KD of MS2 coat protein, switch ON state; designed switch direction (-1 OFF switch, 1 ON switch): 1; higher = weaker reporter binding; conditions: FMN input: 0 or 200 uM; Eterna round: R93 (includes R88 designs)
In short: as §1

| Sequence | apparent KD of MS2 coat protein (MS2 coat protein [1]) | apparent KD of MS2 coat protein (MS2 coat protein [2]) |
| --- | --- | --- |
| AGAAUAAAAAGACAGGAUAUCCAAAAGAAAACAUGAGGAUCACCCAUGUAAAAAAAAAUAAAAUGGGAGAAGGGUCAAAAUAAAG [Mat - Same State 2 - JL mod - D69] | 0.044 µM | 0.018 µM |
| AAAAAACAUGAGGAUCACCCAUGUAAAAAAAUGGGAGGAUAUACAAAAACAAAAAAAAAAGUAGAAGGCCUGAAAA [same state 9] | 0.419 µM | 0.0413 µM |
| GAAGACAUAGUUCAGGAUAUAGGAAUAGUCACAUGAGGAUCACCCAUGUGCAUUUAUAUGCGCACUUAGAAGGGAGGUAGUUAAU [Mat - Same state - Malcolm Mod - D120] | 0.0268 µM | 0.0284 µM |
| AGGAAACAUGAGGAUCACCCAUGUAAAAAUAUGGAAGGAUAUGGAAACACGAAAGUGAAACCAGAAGGUCUGAAAA [77%, Mat - Mod of Eli, 20] | 0.0233 µM | 0.0166 µM |
| AGAAAUAAAAGAGAGGAUAUCCAAAAUAAAACAUGAGGAUCACCCAUGUCUACGAAAGUAGGAUGGGAGAAGGCUCAAAAUAAAG [80% More Helter Skelter 2 + Hairpin] | 0.0148 µM | 0.12 µM |
| AAGAAACAUGAGGAUCACCCAUGUAAGAUAAACACAGGAUAUGCGAAAAGAAAUAAAGAAGCAGAAGGGUGAAGAA [Mat - Same State 1 - Tesla mod - 63] | 0.0543 µM | 0.0217 µM |
| AAAAUAUAAACAGAGGAUAUCCAAAGAACCACAUGAGGAUCACCCAUGUAAAGAAAGAAUAAGUGGGAGAAGGUUGAAAUAAUAA [Designing denovo 26] | 0.0749 µM | 0.0499 µM |
| AGAAAUAAAAGAGAGGAUAUCCAAAAGAAAACAUGAGGAUCACCCAUGUGAAACAAAACAAAAUGGGAGAAGGCUCAAAAUAAGA [Topaz 16] | 0.137 µM | 0.031 µM |
| CGGUAAGAGAGAGAGGAUAUCCAAAGGAAAACAUGAGGAUCACCCAUGUAGAAGGUAGGAAAUUGGGAGAAGGCUCAAGAGAGAG [salish99-ss2-133] | 0.0617 µM | 0.0584 µM |
| GAAAAACAUGAGGAUCACCCAUGUAGAAAUAUGGGAGGAUAUACAAGGACGAAAGUCAAGGUAGAAGGCCUAAAAG [Mat - Same State 1 - Eli mod - 26] | 0.0986 µM | 0.0338 µM |
| AAACAAACAACGCAGGAUAUGCAAAAACCCACAUGAGGAUCACCCAUGUCCCAACAACAAACAAAGCAGAAGGGCGAACAAACAAA [High Roller1] | 0.0868 µM | 0.0373 µM |
| AGGAAACAUGAGGAUCACCCAUGUAAAAUAAUGGGAGGAUAUGCGAAAAGAAAAAGAAAAGCAGAAGGCCUAAGAA [62%, Something completely different, 4] | 0.0986 µM | 0.0186 µM |
| AAGAAACAUGAGGAUCACCCAUGUAAGAUAAACACAGGAUAUGCGAAAGAAACAAAGAAAGCAGAAGGGUGAAGAA [Mat - Same State 1 - Tesla mod - 48] | 0.0268 µM | 0.00976 µM |
| AAUAUAUUAAGUGAGGAUAUCGAGGAAAAAACAUGAGGAUCACCCAUGUGGGUAAAAAAAAAAAGUGAGAAGGUGCUUAAUAUAU [Samwise Clockwise 10 - Jieux - Same State 2] | 0.128 µM | 0.0323 µM |
| AAUACACAUAGUCAGGAUAUCAAAAAUAAGACAUGAGGAUCACCCAUGUAAUAAGUAAAAGUAAAUGAGAAGGGACAGGGUGAAA [JR_SS002_Sub402] | 0.0793 µM | 0.033 µM |
| GAGAAGGAGAGAGAGGAUAUCCAAAGGAAAACAUGAGGAUCACCCAUGUAAAAGGUAGGAAAUUGGGAGAAGGCUCAAGAGAGAG [salish99-ss2-108(!)] | 0.0343 µM | 0.033 µM |
| CGCGAACAUGAGGAUCACCCAUGUAGCGGGAAACAAGGAUAUGGGAGGCGAAAUCGCGGAUCAGAAGGUGUAAGCG [Laaratat] | 0.0124 µM | 0.0147 µM |
| AGAAAACAUGAGGAUCACCCAUGUCAGAAAUGGCAAGGAUAUAGAAAAGAAAAAGAAAAACUAGAAGGUGCAAAAG [Meechl SS1 R2 m2] | 0.153 µM | 0.187 µM |
| GGAAGACAUGAGGAUCACCCAUGUGGGAAUAUGGGAGGAUAUACAAAGACGAGAGUCAGAGUAGAAGGCCUAGGAU [salish99-ss1-100] | 0.138 µM | 0.044 µM |
| GUGGACGUAGGAUAGGAUAUAUGAAUAAUUACAUGAGGAUCACCCAUGUCCAUUUAUAUGGGAACAUAGAAGGGUUGUGGUUAAC [Mat - Same state - Malcolm Mod - D132] | 0.602 µM | 0.364 µM |
| CGGAAGGAGAGAGAGGAUAUCCAAAGGAAAACAUGAGGAUCACCCAUGUAGAAGGUAGGAAAUUGGGAGAAGGCUCAAGAGAGUG [salish99-ss2-121] | 0.0446 µM | 0.0302 µM |

| Sequence | apparent KD of MS2 coat protein (MS2 coat protein [1]) | apparent KD of MS2 coat protein (MS2 coat protein [2]) |
| --- | --- | --- |
| UAAUAAUAAACCAAGGAUAUGGAGUAUAGCACAUGAGGAUCACCCAUGUGUAGCGUGGGUUAGUACCAGAAGGUGGAGUGAAAUG [JR_SS002_Sub1001] | 0.0828 µM | 0.0878 µM |
| AAAAGACAUGAGGAUCACCCAUGUCGAAAGACAUGAGGAUAUGUACAGACUUCGGUCUGUACAGAAGGCAUAAAAA [SS1 - 1061] | 0.0895 µM | 0.027 µM |
| AUAUAUAUAAGGUAGGAUAUUCUAAAGUAAACAUGAGGAUCACCCAUGUAAAGAAAGAAACUCAUGGAGAAGGACCAUAUAUAUA [Modifying Tesla's highscorer (77%) - Adding G segment] | 0.0848 µM | 0.0199 µM |
| AUAACACAUGAGGAUCACCCAUGUAGAUACCCGUCAGGAUAUGCAAAGAAAAUAAACAAAGCAGAAGGGACAAUAA [SS 1 Tesla 2] | 0.0304 µM | 0.0212 µM |
| AAAACACAUGAGGAUCACCCAUGUAAAAACAUGAGAGGAUAUGCUUGGAAAACAUGCUAUGCAGAAGGCUCAAGUG [SS1 - 9] | 0.0301 µM | 0.0182 µM |
| GACAAACAUGAGGAUCACCCAUGUAGAAAUAUGGGAGGAUAUACACAGACGAAAGUCAAAGUAGAAGGCCUAAAAG [77%, Mat - Mod of Eli - With 2 more C's] | 0.137 µM | 0.0285 µM |
| GAAAAACAUGAGGAUCACCCAUGUGGAAAUAUGGGAGGAUAUACGAAGACGAAAGUCAAAGUAGAAGGCCUAAAAG [Same State 1.4c (Mat - Mod of Eli - )] | 0.0838 µM | 0.022 µM |
| AAAAAACAUGAGGAUCACCCAUGUAAAAAAAUCACAGGAUAUAAGGUCGCGAAAGCGACCUUAGAAGGGUGAUCAA | 0.421 µM | 0.0588 µM |
| CGAAAGGAGAGAGAGGAUAUCCAAAGGAAAACAUGAGGAUCACCCAUGUAGAAGGUAGGAGAUUGGGAGAAGGCUCAAGCAAAAC [salish99-ss2-157] | 0.0186 µM | 0.0159 µM |
| CCGAGGAAGAGAGAGGAUAUCCAAAGGAAAACAUGAGGAUCACCCAUGUAAAAGGUAGGAAAUUGGGAGAAGGCUCAAGAGAGAG [salish99-ss2-072] | 0.0471 µM | 0.0387 µM |
| UGAAGACAUGAGGAUCACCCAUGUGGGAAUAUGGGAGGAUAUACAAAGACGAGAGUCAGAGUAGAAGGCCUAGGAC [salish99-ss1-98] | 0.133 µM | 0.0479 µM |
| AAAAAACAUGAGGAUCACCCAUGUCUUUUGACAUGAGGAUAUGUACAGACUUCGGUCUGUACAGAAGGCAUAAAAA [SS1 - 1030] | 0.48 µM | 0.109 µM |
| GGGAGACAUGAGGAUCACCCAUGUGAGAAGAGGCGAGGAUAUCGAAAGAAAGAAGAGAAACGAGAAGGCGCGAGCA [salish99-SS1-052] | 0.0604 µM | 0.0391 µM |
| AAGAAACAUGAGGAUCACCCAUGUAGAAACAUGGGAGGAUAUACGAAGACGAAAGUCAAAGUAGAAGGCCUAAAAA [Garnet 90] | 0.198 µM | 0.0788 µM |
| AAAUAAAGGACUGAGGAUAUACCACAUGAAACAUGAGGAUCACCCAUGUAGAAAUACAAAGGGUGGUAGAAGGCAGUCCACAAAC [Same State 2.5g ( so lets mod hyphema)] | 0.0255 µM | 0.015 µM |
| AUAAAUAAAGAUCAGGAUAUUAUAAAGAUAACAUGAGGAUCACCCAUGUAAAACAAAAUUAUGGGUAAGAAGGGAUCAAAUAAAU [SS2 M 20] | 0.184 µM | 0.0469 µM |
| CAAAACAAAACAUAGGAUAUCAAAACAAAAACAUGAGGAUCACCCAUGUGGAAACAUGAGAAGGAUGAGAAGGAAAACAAAACAA [Meechl SS2 R2 m7] | 0.0496 µM | 0.025 µM |
| AGUCAACAUGAGGAUCACCCAUGUCUGAGGGCAUGAGGAUAUCUAGAUGGGCAGCAUGAUAGAGAAGGCAUGCGCC [Betea] | 0.199 µM | 0.185 µM |
| AAAACACAUGAGGAUCACCCAUGUAGAAAUAUGGGAGGAUAUACGAAAACGAAAGUCAAAGUAGAAGGCCUAAAAG [saturn 3] | 0.079 µM | 0.0309 µM |
| AAAAGACAUGAGGAUCACCCAUGUAAAGACAUAGGAGGAUAUGUCUGGAAAAAAGACUGGACAGAAGGCCUUUGUC [SS1 - 62] | 0.0204 µM | 0.02 µM |
| GAGAUACAUGAGGAUCACCCAUGUUGAAACAUGGGAGGAUAUACAAGGUCGAAAGAUAAGGUAGAAGGCCUAAAAG [LROPPY Same State 1 - v04_deltaG=3.] | 0.0203 µM | 0.0376 µM |
